Assay results published in publication PMC10992053, “Rationally introducing non-canonical amino acids to enhance catalytic activity of LmrR for Henry reaction” (Bioresources and Bioprocessing, 2024).

Test system: O=Cc1ccc([N+](=O)[O-])cc1
Assay: Henry reaction, product by HPLC, Michaelis-Menten fit
Assay type: biochemical, Lactococcus cremoris
Conditions: nitromethane 1 M (excess), 3-18 mM aldehyde, 0.3 mg/mL enzyme, 40 °C, 5 min
Source text: Henry reaction, product by HPLC, Michaelis-Menten fit on LmrR (Lactococcal multidrug resistance Regulator)

LmrR (Lactococcal multidrug resistance Regulator) (Lactococcus cremoris subsp. cremoris MG1363; V15F)
Km: 8.28 mM
Vmax: 1960 µM/min
kcat: 1.47 s⁻¹
kcat/Km: 178 M⁻¹ s⁻¹
